For data set [1], the system named is RAR/RXR endogenous retinoic acid receptors (Mus musculus). The experiment in a line: cell_activity. The note with it: P19 cells, 10^-7 M retinoic acid; 0.49 without retinoic acid; 61.95 with 100 uM KLGFFKR.
Data set [2] addresses Androgen receptor DNA-binding domain (Rattus norvegicus, UniProt P15207 P15207:541-614). Nature of the data set: EMSA. The note with it: tags: GST fusion (pGEX-3X); label: 32P. How it is done:
As described in Rennie et al., 1993, DNA binding domain of recombinant rat androgen receptor was prepared as a GST-fusion protein using the pGEX-3X vector and purified by glutathione-agarose affinity chromatography. p60 (calreticulin) was purified by affinity chromatography on KLGFFKR-sepharose, followed by gel electrophoresis as described in detail in Rojiani et al., 1991. […] Recombinant calreticulin (GST-fusion protein) was prepared as described by Baksh and Michalak, 1991. Gel retardation assays were carried out as described by Rennie et al., 1993. To analyze the effect of p60, or recombinant calreticulin, on receptor-DNA binding activity, the AR was pre-incubated with p60 for 30 min at 4° C. To analyze the effects of synthetic peptides, anti-calreticulin antibody, and non-immune IgG on p60 inhibition of AR-ARE binding, the peptide, antibody or IgG were pre-incubated with p60 for 30 min at 4° C. The androgen receptor preparation was then added to these mixtures and further incubated for 30 min at 4° C.
Affinity purified DNA binding domain of the recombinant rat androgen receptor (AR) was pre-incubated with or without the indicated concentrations of purified p60 at 4° C. for 30 min. After this pre-incubation the reaction mixtures were incubated with ³²P-labeled 26 base pair ARE (Rennie et al., 1993) (androgen response element), and analyzed by gel retardation assay. […]
For orientation: In EMSA bound probe runs differently from free probe, usually more slowly.

Sequence of Androgen receptor DNA-binding domain (P15207 541-614, one chain of several): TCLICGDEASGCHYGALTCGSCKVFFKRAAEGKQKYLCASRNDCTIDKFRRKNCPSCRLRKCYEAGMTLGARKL

“bRARE (RAR-beta upstream 32 bp RARE, luciferase reporter)” returned an activity (corrected luc/bgal) in data set [1] of 25.7.

B1: ARE, rat probasin promoter -115 to -140 (dsDNA)
DNA 1: GTAAAGTACTCCAAGAACCTATTTGT
DNA 2: ACAAATAGGTTCTTGGAGTACTTTAC
As for B1, the binding result in data set [2] is “binds”.

The record behind these values is patent US20030060613, “Novel use of calreticulin in modulating hormone responsiveness and new pharmaceuticals for treating cancer, osteoporosis and chronic inflammatory disease” (published 2003).
